Measured values published in publication PMC5150220, “Multivalent contacts of the Hsp70 Ssb contribute to its architecture on ribosomes and nascent chain interaction” (Nature Communications, 2016).
Ends that are not written are not given here.

B1: APPY peptide (biotinylated) (peptide)
peptide: SALLQSRLLLSAPRRAAATARYC
modifications: also: biotinylated, position not given here
notes: canonic Hsp70 substrate peptide APPY
B2: Ssb1 (wild type, recombinant) (natural protein)
chain: not shown
notes: Hsp70 Ssb1 of Saccharomyces cerevisiae, wild type, expressed as His6-Smt3-Ssb1 and cleaved with Ulp1; The nucleotide state was set by pre-treatment with ATP (SsbATP) or apyrase (SsbADP) in one experiment; also called wt Ssb1; full length Ssb1; source: E. coli BL21(DE3)*/pRARE, purified (Ni-IDA, Ulp1 cleavage, Resource Q anion exchange); not shown: His6, N-terminal, cleaved; Smt3, N-terminal, …

Key:
Details in all cases: both partners purified
[1] = target: T1, Ssb1Δ601–13 (recombinant) (S. cerevisiae, UniProt P11484 1-600); assay: SEC; 2 uM biotinylated peptide incubated 30 min at RT with 4 uM purified Ssb1 in Ssb buffer (30 mM HEPES KOH pH 7.4, 50 mM KAc, 5 mM MgCl2, 1 mM beta-mercaptoethanol), then apyrase for 1 h; Superose 12; fractions dot-blotted, peptide detected with StrepTactin-HRP and Ssb with antibody
T1 construct: Purified as the wild type ('His6-Smt3-Ssb1 construct (or mutations thereof)'); also called mutant Ssb1; source: E. coli BL21(DE3)*/pRARE, purified (Ni-IDA, Ulp1 cleavage, Resource Q anion exchange); not shown: His6, N-terminal, cleaved; Smt3, N-terminal, cleaved

[2] = target: B2; assay: as above
[3] = target: B1; assay: SEC; as a1, but Ssb pre-incubated with apyrase (SsbADP) before the peptide was added, compared with Ssb pre-incubated with ATP (SsbATP) and treated with apyrase after the peptide; shifted APPY signals quantified
[4] = target: T1, Ssb1Δ601–13 (recombinant); assay: fluorescence polarisation; fluorescence anisotropy; Ssb1 wt or mutant (10 uM in the methods; titrated up to 100 uM in the text) with 1 uM IAANS-labelled peptide in HKM buffer (25 mM HEPES, 150 mM KCl, 5 mM MgCl2, 1 mM DTT, 10% glycerol), 1.5 h at 30 °C
[5] = target: B2; assay: as above

T1 sequence (P11484 1-600, stated change not applied): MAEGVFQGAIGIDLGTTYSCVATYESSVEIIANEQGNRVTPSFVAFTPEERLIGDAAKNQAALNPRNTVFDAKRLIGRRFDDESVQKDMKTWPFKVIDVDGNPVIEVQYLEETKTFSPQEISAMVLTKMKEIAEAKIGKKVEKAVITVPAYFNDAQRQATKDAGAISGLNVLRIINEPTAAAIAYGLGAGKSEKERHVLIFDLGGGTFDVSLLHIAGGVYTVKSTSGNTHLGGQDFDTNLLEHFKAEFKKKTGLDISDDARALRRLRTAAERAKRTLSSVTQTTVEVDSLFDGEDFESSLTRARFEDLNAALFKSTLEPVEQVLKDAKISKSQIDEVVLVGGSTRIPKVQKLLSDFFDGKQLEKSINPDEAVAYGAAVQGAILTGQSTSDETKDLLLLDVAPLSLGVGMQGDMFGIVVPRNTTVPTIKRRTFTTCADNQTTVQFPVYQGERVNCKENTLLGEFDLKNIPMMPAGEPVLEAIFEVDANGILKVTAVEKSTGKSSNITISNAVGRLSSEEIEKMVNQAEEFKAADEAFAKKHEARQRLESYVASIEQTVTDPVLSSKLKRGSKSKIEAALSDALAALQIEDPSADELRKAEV

B1: binds [1]; binds [2].

In the case of B2, the “shifted APPY signal of SsbADP relative to SsbATP” value [3] is reported as 71%.

B3: IAANS-labelled peptide σ32-Q132-Q144-C (peptide)
peptide: QRKLFFNLRKTKQC
modifications: also: IAANS label, position not given here
notes: sigma-32 (heat shock sigma factor RpoH), residues Q132-Q144; The unlabelled peptide was used in 100-fold excess as the chase in the release assay; also called model peptide
B3: binds [4]; binds [5].
